The results in this text go back to patent US20250376536A1 (Bristol-Myers Squibb, published 2025).

One assay deals with T1, mouse CD40 protein (mouse, UniProt P27512 20-193, limits assumed).
T1 sequence (looked up): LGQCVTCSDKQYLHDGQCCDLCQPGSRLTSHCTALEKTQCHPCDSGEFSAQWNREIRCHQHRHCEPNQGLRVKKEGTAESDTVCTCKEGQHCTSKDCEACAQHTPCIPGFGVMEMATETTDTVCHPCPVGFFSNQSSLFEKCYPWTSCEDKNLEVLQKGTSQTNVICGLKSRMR
Nature of the assay: SPR. A general note: SPR reads the build-up and loss of mass on a sensor chip optically.

The next assay deals with T2, mouse FAP protein (mouse, UniProt P97321 26-761).
T2 sequence (looked up): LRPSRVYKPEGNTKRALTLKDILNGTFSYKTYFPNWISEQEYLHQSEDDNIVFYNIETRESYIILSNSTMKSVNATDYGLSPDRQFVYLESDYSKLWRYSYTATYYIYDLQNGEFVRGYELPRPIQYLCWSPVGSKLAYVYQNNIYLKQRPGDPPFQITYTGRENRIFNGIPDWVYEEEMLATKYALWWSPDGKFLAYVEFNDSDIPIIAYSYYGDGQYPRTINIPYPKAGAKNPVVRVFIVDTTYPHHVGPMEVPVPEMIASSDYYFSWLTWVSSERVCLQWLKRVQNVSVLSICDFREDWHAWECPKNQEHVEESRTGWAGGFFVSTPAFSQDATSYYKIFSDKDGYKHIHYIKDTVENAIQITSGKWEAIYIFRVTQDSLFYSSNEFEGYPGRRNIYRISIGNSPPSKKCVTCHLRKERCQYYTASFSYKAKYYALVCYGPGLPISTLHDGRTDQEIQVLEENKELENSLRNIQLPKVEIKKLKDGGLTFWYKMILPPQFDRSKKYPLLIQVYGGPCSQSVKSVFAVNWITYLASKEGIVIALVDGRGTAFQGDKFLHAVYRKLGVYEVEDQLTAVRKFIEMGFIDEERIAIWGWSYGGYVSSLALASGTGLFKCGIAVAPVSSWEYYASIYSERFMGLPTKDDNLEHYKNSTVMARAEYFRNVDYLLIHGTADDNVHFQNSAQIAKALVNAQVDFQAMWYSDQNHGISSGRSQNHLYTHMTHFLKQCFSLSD
Nature of the assay: SPR.

The next assay addresses T3, mouse FAP on HEK cells (mouse, UniProt P97321 1-761).
T3 construct: whole, on cells; also called Mouse FAP-positive HEK cells; mouse FAP-expressing HEK cells
T3 sequence (looked up): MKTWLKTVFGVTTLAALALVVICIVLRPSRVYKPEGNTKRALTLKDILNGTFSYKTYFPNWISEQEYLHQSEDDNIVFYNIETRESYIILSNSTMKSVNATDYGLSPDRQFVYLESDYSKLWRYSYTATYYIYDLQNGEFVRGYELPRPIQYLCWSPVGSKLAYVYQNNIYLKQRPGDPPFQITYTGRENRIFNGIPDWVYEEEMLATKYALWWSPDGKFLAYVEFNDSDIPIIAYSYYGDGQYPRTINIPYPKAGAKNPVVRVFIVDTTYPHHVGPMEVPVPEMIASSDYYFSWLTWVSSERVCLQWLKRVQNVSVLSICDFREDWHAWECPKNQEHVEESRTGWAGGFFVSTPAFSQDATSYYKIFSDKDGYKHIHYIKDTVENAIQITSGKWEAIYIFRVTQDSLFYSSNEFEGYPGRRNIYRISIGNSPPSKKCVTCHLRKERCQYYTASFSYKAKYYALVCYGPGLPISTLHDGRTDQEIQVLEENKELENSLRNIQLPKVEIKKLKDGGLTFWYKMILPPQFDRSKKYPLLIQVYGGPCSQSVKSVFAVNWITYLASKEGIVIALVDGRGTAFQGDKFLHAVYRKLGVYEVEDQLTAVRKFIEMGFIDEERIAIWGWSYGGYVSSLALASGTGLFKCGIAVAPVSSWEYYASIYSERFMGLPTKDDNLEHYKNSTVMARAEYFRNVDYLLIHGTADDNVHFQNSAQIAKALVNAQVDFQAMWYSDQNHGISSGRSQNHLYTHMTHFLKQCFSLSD
Nature of the assay: binding to mouse FAP-positive HEK cells.

Assay [1] has as its target T4, mouse CD40 on cells (mouse, UniProt P27512 20-289).
T4 construct: whole, on cells; also called Mouse CD40-positive macrophage; Mouse CD40-positive B cell
T4 sequence (looked up): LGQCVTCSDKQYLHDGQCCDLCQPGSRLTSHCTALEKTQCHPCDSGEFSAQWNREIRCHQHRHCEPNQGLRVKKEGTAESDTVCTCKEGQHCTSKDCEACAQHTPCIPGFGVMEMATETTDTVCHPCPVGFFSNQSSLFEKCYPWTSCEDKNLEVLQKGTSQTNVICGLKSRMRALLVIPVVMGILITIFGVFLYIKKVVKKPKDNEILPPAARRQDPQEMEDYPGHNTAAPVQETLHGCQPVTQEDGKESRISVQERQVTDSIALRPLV
Nature of the assay: binding to mouse CD40-positive B cells.

In assay [2] the target is T4, mouse CD40 on cells. Nature of the assay: binding to mouse CD40-positive macrophages.
For assay [3], the target named is T4, mouse CD40 on cells. Nature of the assay: cell-based or functional assay.

B1: mCD40×FAP.LP62 (2+1 anti-mouse CD40×FAP bispecific antibody) (bispecific antibody)
chain: EVQLLESGGGLVQPGGSLRLSCAASGFTFSSRGMSWVRQAPGKCLEWVSFISSSGTYVYYADSVKGRFTISRDNSKNTLYLQMNSLRAEDTAVYYCARDLPRTGVYFGMDVWGQGTTVTVSSGGGGSGGGGSGGGGSGGGGSDIQMTQSPSSLSASVGDRVTITCRASQSIFNYLNWYQQKPGKAPKLLIYGASTLQSGVPSRFSGSGSGTDFTLTISSLQPEDFATYYCQESYSTPYTFGCGTKVEIK
One may read the Kd as the free concentration of one partner at which half of the binding sites on the other are occupied at equilibrium, for simple one-to-one binding. Read a high Kd as lower affinity. A word on the EC50: it is the concentration at which the effect is half-maximal. As for B1, the equilibrium dissociation constant (Kd) stood at 45.8 nM with mouse CD40 protein and 3.4 nM with mouse FAP protein. Further, the EC50 in the assay with mouse FAP on HEK cells stood at 3.17 nM; with mouse CD40 on cells [1], 12.1 nM; in the assay with mouse CD40 on cells [2], 7.3 nM. In the assay with mouse CD40 on cells [3], the “CCL22 secretion, murine BMDM + MC38-FAP co-culture, EC50” value came out at 1.02 nM. Besides, the “IL12p40 secretion, murine BMDM + MC38-FAP co-culture, EC50” value in the assay with mouse CD40 on cells [3] is 1.43 nM.
